Measured values from PMC10967027.
“And” between values parts separate entries of the source, which are not always exact repeats. Equal entries are not always repeated.

Experiments:
[1] = target: 868-Z11 A94αH/T96βK single chain TCR; experiment: SPR; steady state; scTCR immobilised on a CM5 Series S chip by amine coupling (about 2000 RU); peptide/MHC injected at 5 μL/min at concentrations between 50 µM and 2 nM; 25 °C; HBS-EP (10 mM HEPES, 150 mM NaCl, 3 mM EDTA, 0.005% surfactant P-20, pH 7.4); 1:1 binding model; each cell one of three titrations of its group
[2] = target: 868-Z11 G104βP/T96βK single chain TCR; experiment: as above
[3] = target: 868-Z11 T96βK single chain TCR; experiment: as above
[4] = target: 868-Z11 single chain TCR (WT), displayed on yeast; experiment: flow cytometry on cells; yeast displaying the 868-Z11 scTCR stained with PE-conjugated SL9/HLA-A2 tetramer, 256 pM to 32.8 nM, 30 min at 4°C, PBS-BSA; MFI fit to a 1:1 binding isotherm; apparent KD; in duplicate
[5] = target: 868-Z11 G104βP/T96βK single chain TCR, soluble recombinant
[6] = target: 868-Z11 G104βP single chain TCR, soluble recombinant; experiment: SPR; single cycle kinetics; scTCR immobilised on CM5 chip by amine coupling (100-300 RU); peptide/MHC injected at 0.6-48 nM, 100 μL/min; 25°C; HBS-EP pH 7.4; 1:1 model
[7] = target: 868-Z11 A94αH single chain TCR, soluble recombinant; experiment: as above
[8] = target: 868-Z11 G104βP/T96βK single chain TCR, soluble recombinant; experiment: SPR; steady state; scTCR immobilised on CM5 chip by amine coupling (about 2000 RU); peptide/MHC injected at 50 µM to 2 nM, 5 μL/min; 25°C; HBS-EP pH 7.4; 1:1 model
[9] = target: 868-Z11 T96βK single chain TCR, soluble recombinant; experiment: as above
[10] = target: 868-Z11 A94αH/T96βK single chain TCR, soluble recombinant; experiment: as above

Substance	Kd [1]	Kd [2]	Kd [3]	further results
SL9 V6I escape variant presented by HLA-A*02:01 (from UniProt P61769 21-119) (peptide-MHC)	9.5 µM and 12.4 µM and 17.9 µM	0.7 µM and 1.5 µM and 1.6 µM	0.8 µM and 1.1 µM and 1.2 µM	–
PE-conjugated SL9/HLA-A2 tetramer (from UniProt P61769 21-119) (peptide-MHC)	–	–	–	Kd [4]: 0.0017 µM
SL9 Y3F escape variant presented by HLA-A*02:01 (from UniProt P61769 21-119) (peptide-MHC)	264 µM and 274 µM and 403 µM	34 µM and 39.8 µM and 52.3 µM	38.6 µM and 39.3 µM and 58.2 µM	–
SL9 Y3F/T8V escape variant presented by HLA-A*02:01 (from UniProt P61769 21-119) (peptide-MHC)	324 µM and 314 µM and 475 µM	49.1 µM and 62.5 µM	46 µM and 44.6 µM and 59 µM	–
SL9 Y3F/V6I escape variant presented by HLA-A*02:01 (from UniProt P61769 21-119) (peptide-MHC)	102 µM and 105 µM and 167 µM	12.5 µM and 18.5 µM and 22.5 µM	9.6 µM and 10.2 µM and 15.7 µM	–
SL9 T8V escape variant presented by HLA-A*02:01 (from UniProt P61769 21-119) (peptide-MHC)	22.2 µM and 24.3 µM and 40.7 µM	1.4 µM and 3.5 µM and 3.2 µM	1.6 µM and 1.9 µM and 2.7 µM	–
SL9/HLA-A2 (HIV SL9 epitope presented by HLA-A*02:01), soluble (from UniProt P61769 21-119) (peptide-MHC)	–	–	–	peptide EC50 of IL-2 release (ELISA): CD8+ Jurkat 76 cells with the full length 868-Z11 G104βP/T96βK TCR co-cultured with T2 cells pulsed with WT SL9 peptide, 0.1 nM-100 µM [5]: 0.01 µM; Kd [6]: 0.0003 µM; Kd [7]: 0.0052 µM; Kd [8]: 2.2 µM; Kd [9]: 2.5 µM; Kd [10]: 33 µM
SL9 Y3F/V6I/T8V escape variant presented by HLA-A*02:01 (from UniProt P61769 21-119) (peptide-MHC)	154 µM and 177 µM and 203 µM	20.4 µM and 28.1 µM and 26.3 µM	17.3 µM and 23.8 µM and 20.2 µM	–
SL9 V6I/T8V escape variant presented by HLA-A*02:01 (from UniProt P61769 21-119) (peptide-MHC)	9.9 µM and 13.7 µM and 17.9 µM	0.8 µM and 1.8 µM and 1.5 µM	0.8 µM and 1.1 µM and 1 µM	–
